Measurements reported in US20240287501A1 (VIB VZW, published 2024).

Legend:
GFP-tagged ALD6 = biological target: T1, GFP-tagged ALD6 (Saccharomyces cerevisiae, UniProt P54115 2-500); assay: co-immunoprecipitation, Nb coupled to NHS-agarose beads, lysate of the yeast strain expressing the GFP-tagged target, Western blot anti-GFP
T1 construct: Yeast GFP Fusion Collection strain; also called Yeast GFP fusion collection GFP(+)15, F1; not shown: GFP tag
T1 sequence (looked up): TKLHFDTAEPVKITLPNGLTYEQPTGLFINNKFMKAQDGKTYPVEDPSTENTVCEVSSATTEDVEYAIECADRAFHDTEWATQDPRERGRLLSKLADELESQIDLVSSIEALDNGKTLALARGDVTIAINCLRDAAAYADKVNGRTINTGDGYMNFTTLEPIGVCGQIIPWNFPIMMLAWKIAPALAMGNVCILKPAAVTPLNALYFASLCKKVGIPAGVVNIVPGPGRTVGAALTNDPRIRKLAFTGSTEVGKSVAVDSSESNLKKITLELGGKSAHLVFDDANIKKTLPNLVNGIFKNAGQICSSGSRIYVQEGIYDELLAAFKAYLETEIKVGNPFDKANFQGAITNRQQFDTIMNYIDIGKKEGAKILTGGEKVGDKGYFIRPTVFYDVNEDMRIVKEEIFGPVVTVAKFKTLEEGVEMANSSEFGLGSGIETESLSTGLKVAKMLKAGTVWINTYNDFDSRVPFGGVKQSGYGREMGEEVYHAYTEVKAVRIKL
Method: One SIS1-specific Nanobody (44=Nb clone CA17444 corresponding to SEQ ID NO: 9), three ALD6-specific Nanobodies (53=CA17453-SEQ ID NO: 10, 54=CA17454-SEQ ID NO: 11, 60=CA17460-SEQ ID NO: 12), two BMH1-specific Nanobodies (58=CA17458-SEQ ID NO: 13, 59=CA17459-SEQ ID NO: 14) were characterized by co-immunoprecipitation assays. Each target-specific Nanobodies was covalently linked to NHS-agarose beads. The beads that were functionalized with these target-specific Nanobodies were incubated for an hour at 4° C. on a rotating device with either an EBY100 lysate or the lysate of the engineered Yeast strain expressing the target (Yeast GFP fusion collection reference for SIS1: GFP(+)22, E5, for ALD6: GFP(+)15, F1, for BMH1: GFP(+)27, D5) as a GFP-tagged protein. After washing, these beads were resuspended in SDS-PAGE loading dye and analyzed on SDS-PAGE (FIG. 8A). Separated proteins were transferred to a PVDF membrane and the Western blot (FIG. 8B) was developed with GFP-specific antibody to confirm the presence of GFP-tagged targets.

[1] = biological target: T2, ALD6 (native, from EBY100 lysate) (Saccharomyces cerevisiae, UniProt P54115 2-500); assay: co-IP, Nb on NHS-agarose beads, EBY100 yeast lysate, SDS-PAGE
T2 construct: mature; Endogenous untagged protein; also called YPL061W
T2 sequence (looked up): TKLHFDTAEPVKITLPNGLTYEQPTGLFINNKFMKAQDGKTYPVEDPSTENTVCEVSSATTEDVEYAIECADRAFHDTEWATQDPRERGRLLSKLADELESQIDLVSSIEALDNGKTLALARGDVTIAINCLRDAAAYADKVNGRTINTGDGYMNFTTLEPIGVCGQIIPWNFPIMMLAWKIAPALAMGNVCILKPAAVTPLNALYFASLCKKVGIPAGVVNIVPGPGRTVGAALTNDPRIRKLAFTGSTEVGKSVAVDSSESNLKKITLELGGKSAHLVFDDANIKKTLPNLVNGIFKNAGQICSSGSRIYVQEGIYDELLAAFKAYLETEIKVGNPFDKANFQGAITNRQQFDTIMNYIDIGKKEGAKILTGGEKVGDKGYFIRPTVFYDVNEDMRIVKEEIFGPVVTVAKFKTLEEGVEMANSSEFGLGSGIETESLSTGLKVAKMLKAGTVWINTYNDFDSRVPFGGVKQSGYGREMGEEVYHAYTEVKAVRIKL

GFP-tagged SSA1 [2] = biological target: T3, GFP-tagged SSA1 (Saccharomyces cerevisiae, UniProt P10591 2-642); assay: co-immunoprecipitation, Nb coupled to NHS-agarose beads, lysate of the yeast strain expressing the GFP-tagged target, Western blot anti-GFP
T3 construct: Yeast GFP Fusion Collection strain; also called Yeast GFP fusion collection GFP(+)10, E4; not shown: GFP tag
T3 sequence (P10591 2-642): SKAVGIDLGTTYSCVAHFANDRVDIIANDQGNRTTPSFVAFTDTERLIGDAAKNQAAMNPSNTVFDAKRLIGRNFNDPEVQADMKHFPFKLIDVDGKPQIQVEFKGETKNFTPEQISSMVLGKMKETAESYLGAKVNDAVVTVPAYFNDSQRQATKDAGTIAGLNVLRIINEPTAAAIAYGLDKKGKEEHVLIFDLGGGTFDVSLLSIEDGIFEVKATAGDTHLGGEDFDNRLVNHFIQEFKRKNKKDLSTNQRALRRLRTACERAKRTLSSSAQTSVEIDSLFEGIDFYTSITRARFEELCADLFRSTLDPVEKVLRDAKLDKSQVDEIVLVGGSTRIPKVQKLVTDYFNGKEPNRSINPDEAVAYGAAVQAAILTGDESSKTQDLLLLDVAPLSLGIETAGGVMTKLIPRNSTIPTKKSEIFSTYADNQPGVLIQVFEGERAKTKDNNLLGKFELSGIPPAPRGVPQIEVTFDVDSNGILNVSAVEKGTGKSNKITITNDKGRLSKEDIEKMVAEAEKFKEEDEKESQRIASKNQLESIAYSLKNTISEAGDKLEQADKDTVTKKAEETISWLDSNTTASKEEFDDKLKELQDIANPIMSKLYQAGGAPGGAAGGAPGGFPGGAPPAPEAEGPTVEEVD
Method: (§1) Six SSA1-specific Nanobodies (60=Nb clone CA17560 corresponding to SEQ ID NO: 19, 61=CA17561-SEQ ID NO: 20, 62=CA17562-SEQ ID NO: 21, 63=CA17563-SEQ ID NO: 22, 64=CA17564-SEQ ID NO: 23, 65=CA17565-SEQ ID NO: 24) were characterized by co-immunoprecipitation assays. Each SSA1-specific Nanobodies was covalently linked to NHS-agarose beads. The beads that were functionalized with these SSA1-specific Nanobodies were incubated for an hour at 4° C. on a rotating device with either an EBY100 lysate or the lysate of the engineered Yeast strain expressing SSA1 (Yeast GFP fusion collection reference: GFP(+)10, E4) as a GFP-tagged protein. After washing, these beads were resuspended in SDS-PAGE loading dye and analyzed on SDS-PAGE (FIG. 6A). Separated proteins were transferred to a PVDF membrane and the Western blot (FIG. 6B) was developed with GFP-specific antibody to confirm the presence of GFP-tagged SSA1.

[3] = biological target: T4, SSA1 (native, from EBY100 lysate) (Saccharomyces cerevisiae, UniProt P10591 2-642); assay: co-IP, Nb on NHS-agarose beads, EBY100 yeast lysate, SDS-PAGE
T4 construct: mature; Endogenous untagged protein; also called YAL005C
T4 sequence (P10591 2-642): as above

[4] = biological target: T5, PGI1 (native, un-tagged, from EBY100 lysate) (Saccharomyces cerevisiae, UniProt P12709 2-554); assay: co-immunoprecipitation, Nb coupled to NHS-agarose beads, EBY100 yeast lysate (native target), SDS-PAGE
T5 construct: mature; Endogenous untagged protein, 61 kDa band; also called YBR196C; endogenous PGI1
T5 sequence (P12709 2-554): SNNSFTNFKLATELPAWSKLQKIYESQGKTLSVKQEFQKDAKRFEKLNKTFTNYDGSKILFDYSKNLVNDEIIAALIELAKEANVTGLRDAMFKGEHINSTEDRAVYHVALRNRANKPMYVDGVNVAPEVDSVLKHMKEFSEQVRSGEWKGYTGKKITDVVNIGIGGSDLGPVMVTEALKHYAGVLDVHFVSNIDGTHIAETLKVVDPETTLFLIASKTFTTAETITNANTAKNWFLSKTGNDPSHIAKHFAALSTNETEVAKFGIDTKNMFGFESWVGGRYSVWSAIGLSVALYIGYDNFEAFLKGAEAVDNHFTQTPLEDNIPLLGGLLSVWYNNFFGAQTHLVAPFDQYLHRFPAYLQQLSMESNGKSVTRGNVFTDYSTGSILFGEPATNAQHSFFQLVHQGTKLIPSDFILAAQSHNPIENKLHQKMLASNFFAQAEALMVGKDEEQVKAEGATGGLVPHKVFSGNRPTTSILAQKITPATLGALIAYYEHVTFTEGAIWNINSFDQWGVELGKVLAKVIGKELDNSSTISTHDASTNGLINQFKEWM
Method: (§2) Three PGI1-specific Nanobodies (55=Nb clone CA17455 corresponding to SEQ ID NO: 15, 56=CA17456-SEQ ID NO: 16, 57=CA17457-SEQ ID NO: 17) were characterized by co-immunoprecipitation assays. Each PGI1-specific Nanobodies was covalently linked to NHS-agarose beads. The beads that were functionalized with these PGI1-specific Nanobodies were incubated for an hour at 4° C. on a rotating device with either an EBY100 lysate or the lysate of the engineered Yeast strain expressing PGI1 (Yeast GFP fusion collection reference: GFP(+)12, H11) as a GFP-tagged protein. After washing, these beads were resuspended in SDS-PAGE loading dye and analyzed on SDS-PAGE (FIG. 7A). Separated proteins were transferred to a PVDF membrane and the Western blot (FIG. 7B) was developed with GFP-specific antibody to confirm the presence of GFP-tagged PGI1.

GFP-tagged PGI1 = biological target: T6, GFP-tagged PGI1 (Saccharomyces cerevisiae, UniProt P12709 2-554); assay: co-immunoprecipitation, Nb coupled to NHS-agarose beads, lysate of the yeast strain expressing the GFP-tagged target, SDS-PAGE
T6 construct: Yeast GFP Fusion Collection strain; 88 kDa band; also called GFP-PGI1; Yeast GFP fusion collection GFP(+)12, H11; not shown: GFP tag
T6 sequence (P12709 2-554): as above
Method: as §2

GFP-tagged SSA1 [5] = biological target: T3, GFP-tagged SSA1; assay: as above
Method: as §1

B1: CA17453 (VHH)
VHH: QVQLVESGGGVVQPGGSLRLSCAASGRIFIRSAWYRQAPGKQRALVASIFSGGTTNYADSVKGRFTISRDNAKNTVILEMNNLKPEDTAVYYCNVRVRSGTDYWGQGTQVTVSS
notes: C-terminal 6xHis-EPEA tag is part of the entry
**Q.** Does B1 bind (GFP-tagged ALD6)?
**A.** Result: binds

**Q.** Does B1 bind [1]?
**A.** Result: binds

B2: CA17565 (VHH)
VHH: QVQLVESGGGRVQPGGSLRLSCVASGFTFTSYGMSWYRQTPGKEREFVAAISSESTWADYGDSVKGRFTISRDNAKKMVYLQMNSLKPDDTAVYYCNRDQVPWPTWGPGTQVTVSS
notes: as for B1
**Q.** Does B2 bind (GFP-tagged SSA1 [2])?
**A.** Result: binds

**Q.** Does B2 bind [3]?
**A.** Result: binds

B3: CA17456 (VHH)
VHH: QVQLVESGGGLVQPGGSLRLSCAASRSIVTINVMGWYRQAPGKEREFVAGATSGGSTDYADSVKGRFTISRDNAKNTVYLQMNSLKPEDTAVYYCNLRGTGYNYGENYWGKGTQVTVSS
notes: as for B1
**Q.** What does the source list for B3?
**A.** binding result [4]: binds; binding result (GFP-tagged PGI1): binds

B4: CA17460 (VHH)
VHH: QVQLVESGGGLVQPGDSLRLSCAASGFTVSTNTMTWVRQAPGKGLEWVSTKYSTGGTTYANSVKGRFTISRDNAKNTLYLQMNNLKPEDTAVYYCGGADYRGQGTQVTVSS
notes: as for B1
**Q.** Does B4 bind (GFP-tagged ALD6)?
**A.** Result: binds

**Q.** Does B4 bind [1]?
**A.** Result: binds

B5: CA17454 (VHH)
VHH: QVQLVESGGGLVQPGGSLRLSCAASGSIFSRNYIAWYRQAPGKQRELVARKTQSGATVYADSVKGRFTISTNNAKNTMYLQMNILKPEDTAVYYCNAGGLIGSWGQGTQVTVSS
notes: as for B1
**Q.** Which results are given for B5?
**A.** binding result (GFP-tagged ALD6): binds; binding result [1]: binds

B6: CA17561 (VHH)
VHH: QVQLVESGGGLVQAGGSLRLSCAASTRTFSNYVMAWFRQAPGKEREFVGAINWSGGTEYYADSVKGRFTISRDNAKNTVYLQMNDLNPEDTANYYCAARRGTIARTALVKYLEYDYWGQGTQVTVSS
notes: as for B1
**Q.** Does B6 bind (GFP-tagged SSA1 [5])?
**A.** Result: binds

**Q.** Does B6 bind [3]?
**A.** Result: binds
